Measurements from the DeepSol protein solubility set.

Test: soluble on expression in E. coli; label from the status in PepcDB or PDB records

| Sequence | soluble on expression in E. coli |
| --- | --- |
| MYGLVNKAIQDMISKHHGEDTWEAIKQKAGLEDIDFFVGMEAYSDDVTYHLVGAASEVLGKPAEELLIAFGEYWVTYTSEEGYGELLASAGDSLPEFMENLDNLHARVGLSFPQLRPPAFECQHTSSKSMELHYQSTRCGLAPMVLGLLHGLGKRFQTKVEVTQTAFRETGEDHDIFSIKYEDSNLYDD | soluble |
| TNHHQRALSYLQYGLDQGEGFIVITGPIGTGKTTIARNLLANIADENIVAAQLVTTKLTPNELLDLVAAEFKITVTGNSKADVLQSIEKFLINLNKQGKRALLLVDEAQNLPVETVEELRMLSNFQLDNKPLIQSFLLGQEELKAIISAPDMEQFRQRIIASAHLKP | not soluble |
| MSLKDRFDRFIDYFTEDEDSSLPYEKRDEPVFTSVNSSQEPALPMNQPSQSAGTKENNITRLHARQQELANQSQRATDKVIIDVRYPRKYEDATEIVDLLAGNESILIDFQYMTEVQARRCLDYLDGACHVLAGNLKKVASTMYLLTPVNVIVNVEDIRLPDEDQQGEFGFDMKRNRVRLEHHHHHH | not soluble |
| MIKRTLLLAMLPILAHAEELPAPVKAIEKQGITILKSFEAPGGMKGYLGKYQDMGVTIYLTPDGKHAISGYMYNEKGENLSNALIEKEIYAPAGREMWQKMEKASWILDGKKDAPVVLYVFADPFCPYCKQFWQQARPWVESGKVQLRTLLVGVIKPESPATAAAILAAKDPAKTWHDYEASAGKMKLEVPASIPPAQMKVINQNQQLMDDLGANATPAIYYMNKDKILQQVVGLPEKAQLDAMMGQP | not soluble |
| MEQAPPDPEKLLQPGPLEPLGGPGAVLEAAVGEENEGTREDGSGVDTMTGNNFWLKKIEISVSEAEKRTGRNAVNMQETYTAYLIETRSVEHADGQSVLTDSLWRRYSEFELLRNYLLVYYPHVVVPPLPEKRAEFVWHKLSADNMDPDFVERRRVGLENFLLRVASHPVLCRDKIFYSFLTQEGNWKETVNETGFQLKADSRLKALNATFRVKNPDKRFTELRHYSDELQSVISHLLRVRARVADRLYGVYKVHGNYGRVFSEWSAIEKEMGDGLQSAGHHMDVYASSIDDILEDEEHYADQLKEYLFYAEALRAVCRKHELMQYDLETAAQDLAAKKQQCEELATGTVRTFSLKGMTTKLFGQETPEQREARIKVLEEQINEGEQQLKSKNLEGREFVKNAWADIERFKEQKNRDLKEALISYAVMQISMCKKGIQVWTNAKECFSKM | soluble |
| MAHHHHHHMKSLENNEMHNLCPIHYYFNGRDYNSDTIINNVNIKYFNMDNCLGNANLHMDYLNPVLNHPTKIEHGKIKILILDAPTNDLLPLYIKEMKNYNVTDLVRTCERTYNDGEIQDAGINVHELIFPDGDAPTEDIVSNWLNIVNNVIKNNCAVAVHCVAGLGRAPVLASIVLIEFGMDPIDAIVFIRDRRKGAINKRQLQFLKEYRKKKKKKNCLRKCHFM | not soluble |
| MNVIALMAGDSNDFKEKGYTYPKYFLELDNKPLVQNIVESLKKIDCKITFIIRKEDNDQFFLGSSLKILAPFADVVCISGSTKGAVCTTLFAIDSINNEDEVLLINGDQLVKYDINDIIADFRERNLDGGIVTFESVHPRWSYVCLDEQGLVVQTSEKRPISNVATAGIYYYKRGLDLVESCFSVLKKDVQLNGSYYISSTFNELILRQKKVGVYKIDKKEYISFATTQMYENYINKKLEHHHHHH | soluble |
| MAHHHHHHMVTGDMSTTVTGLDPHKMARRASRFVSSVKASTGTASSTGRTEMERYFENFASMDSAEGLETIGPKGIQHLCEDLAIKRDSFEMYTLIWKLGITRGGCIPRSDWLNMVYNYNIEVPVELKRRLREWVKDARGPSFVEFYSELYDYIRGDSARMMLPETAARAWDVLFRGDQQVAQWIRWYTGFYDCEVTRDIWRHVALFFNTGENATPYRKEDAWPTAFDLFAEWRETCETP | not soluble |
| MSLGFAGDGKTYTASELAIGLVMLMRQRGIEAGNRPVMFLDTETGSDWVKPRFDAENIELFTAKTRSFVDLLEAINEAESSGSVMIIDSISHFWTGLCDEYARRRNRKRGLEFSDWAWLKQEWRRFTDRFVNSQAHIIMCGRAGYEYDFFEGDDGKRQLAKTGIKMKAETETGYEPSIRIQMEKQMNIETGQVWRTARILKDRSTRIDGQVFSNPTFKNFLPHIESLNLGGEHPGIDTSRDNSELFANDGTPTWLKEKRAKEIALDEIIELLNKHHGGTSNDAKRAKADLLEKTFTSRSWERIKGMDWPTIKAGRNALWIELEGVEYAFPDEGHHHHHH | soluble |
| MTATNKQVILKDYVSGFPTESDFDFTTTTVELRVPEGTNSVLVKNLYLSCDPYMRIRMGKPDPSTAALAQAYTPGQPIQGYGVSRIIESGHPDYKKGDLLWGIVAWEEYSVITPMTHAHFKIQHTDVPLSYYTGLLGMPGMTAYAGFYEVCSPKEGETVYVSAASGAVGQLVGQLAKMMGCYVVGSAGSKEKVDLLKTKFGFDDAFNYKEESDLTAALKRCFPNGIDIYFENVGGKMLDAVLVNMNMHGRIAVCGMISQYNLENQEGVHNLSNIIYKRIRIQGFVVSDFYDKYSKFLEFVLPHIREGKITYVEDVADGLEKAPEALVGLFHGKNVGKQVVVVARE | soluble |
| MGSDKIHHHHHHMGGIYRLSLKSTEATAERLSCDTRCNYEDRDLAYSPDGRWLAIARRFSNISEDIFIRDLASAHEKRLTQGLEDIRGLSWTPDSQALVFATEDSGSSNGFTLDINTAQIRSLDVEGMSYPSSVSAEGELVYHQYHRQFQMAYFSLGDKVPGSLFPLLYSGVSHRNPDYSPEAKRIVFVSSETGYNEIWTSDINGQKLEQLTQLKSRVAYPRWSPDGSRIAFIAPDDRNEGNRIFILDLTNKNITALASSYHNHGRPSWNWQGTAVLASTADGITEFYLDNRAPRVISSLSMAVGFAKSATELVFSRDGENGLWQINLTQPEHVEQLISTDAFRAGNNWVLTASGVYFKSSNGHEQLLNYWEASSQQVTSLLRVPRSSLSGFGSMTYIPEANRLVMTLDGFPQRDIILLKHKLLK | not soluble |
| MSSSREENVYLAKLAEQAERYEEMVEFMEKVAKTVDTDELTVEERNLLSVAYKNVIGARRASWRIISSIEQKEESRGNDDHVSIIKDYRGKIETELSKICDGILNLLDSHLVPTASLAESKVFYLKMKGDYHRYLAEFKTGAERKEAAESTLVAYKSAQDIALADLAPTHPIRLGLALNFSVFYYEILNSPDRACSLAKQAFDEAISELDTLGEESYKDSTLIMQLLRDNLTLWNSDINDEAGGDEIKEASKHEPEEGKPAETGQ | soluble |
| SLSSTVSYWILNSTRNSIATLQGGRRLYSRYVSNRNKLKWRLFSRVPPTLNSSPCGGFTLCKAYRHTSTEEDDFHLQLSPEQINEVLRAGETTHKILDLESRVPNSVLRFESNQLAANSPVEDRRGVASCLQTNGLMFGIFDGHGGHACAQAVSERLFYYVAVSLMSHQTLEHMEGAMESMKPLLPILHWLKHPGDSIYKDVTSVHLDHLRVYWQELLDLHMEMGLSIEEALMYSFQRLDSDISLEIQAPLEDEVTRNLSLQVAFSGATACMAHVDGIHLHVANAGDCRAILGVQEDNGMWSCLPLTRDHNAWNQAELSRLKREHPESEDRTIIMEDRLLGVLIPCRAFGDVQLKWSKELQRSILERGFNTEALNIYQFTPPHYYTPPYLTAEPEVTYHRLRPQDKFLVLASDGLWDMLSNEDVVRLVVGHLAEADWHKTDLAQRPANLGLMQSLLLQRKASGLHEADQNAATRLIRHAIGNNEYGEMEAERLAAMLTLPEDLARMYRDDITVTVVYFNSESIGAYYKGG | not soluble |
| MSLTGELHPIFNADALGASHRLHAHTHGDGTKIVGYYNKHLRLGRFTEQTYKSWHAEVDAKASSILNGSGSLLAFYGDHIIEVVDREGKKITLTVNGGIKQVLWHPLAYLDSCLVVLTGQETIEIYELNEPRYEKPTLVLNEPTSQLGISSRVIDITNIAFAPDGLSLYLFSTSEGGDVHVICPLLPSRIKADRAKWARQWNKATALYSTLTKDTPDDAKVATIEYLEFVTQLLQAIEKNGSDGELVIPEHRRRTISQGPYNIHGFPEKLYSAVGTKLTVVPLGESEAHLLLLSFDDSTNILLFPSTEVLMSWTKDLKNAYTLMLVEEFTATGTAFATCDGVAVLGIDSAQRVEIPYLQALEDCIRDCNLAALQDINFTSSICKIPGKFHSVARFNAPGNKGIILVGDHHAKIVPSTEAAKSDTETELDSQPGKEPTYTVCFPNSLEEILNTNKELQRRKHQPLPLVPPALKNEGHHHHHH | soluble |
| MSGSDDDATQISREDEELAYEIYFWIVRCICEKGVVKISELRKIYQSTVVKDRSVQFRPLPGVLKAVNENLLHWQGWNAVIQDDRLTYVNVNGDAPNEVRASETERTLGLLKNVLMYVFVATKPQSKHPGVAQEDLMSYMEASMSTHSDRKLSLDHMEFLKKLIAPNARSEFIKKGYLAFTKSVNENDEEVFRYEWGPAARQTVDPLALVQTFQQLTGMKPEMLKEQTERANELKAEQVAAVTRGGVLRTRGQ | not soluble |
| ATGAAAAAATCAATCCTCAAATCTGTGTTAGCGTCTTCTATTACGCTTTCTATCACGCTAAGCAGCACTGCTTTCGCCTCTCCTATCGTGACACCAGACGCACCACAAATTGCCGCTAAAGGCTATGTACTGATGGATTACCATTCAGGAAAAGTGTTGGCTGAAAAAGAGATGGATACCAAACTCTCTCCTGCCAGCCTAACCAAGATGATGACCAGTTACGTGATCGGTCAAGAAGTAAAGCGTGGCAACATCTCGCTAAATGACGATGTCGTGATCAGCAAAAATGCTTGGGCGAAAAACTTCCCTGATTCTTCGAAAATGTTCGTTGAAGTCGGTACCACGGTTAAGGTCAGCGATCTCAACCGCGGCATCATCATCCAATCGGGTAATGATGCGTGTGTAGCGATGGCAGAGCACGTCGCAGGGACGGAAGATGCGTTTGTTGACCTGATGAACGCTTGGGCAAGCTCACTTGGGATGAAGAATTCGCACTTCACTAACTCTCACGGTTTGGACGATCCTAATCTTTACTCTACGCCATACGATCTGGCTCTACTTGGCCAAGCTCTGATCCGTGAWGTGCCTGAAGAGTACGCGATCTACTCCGAGCAAAAATTCACCTACAACGGCATCACTCAATACAACCGTAACGGTTTGCTTTGGGATAAAAGCATGAATGTGGACGGCATTAAAACCGGACATACGAGTGGTGCTGGCTATAACCTCGTGAGCTCTGCTACAGAAGGCAACATGCGCTTGGTTGCGGTGGTGATGGGTACTGACAACGAAAACGCGCGTAAAGCGGAAAGTAAGAAGCTACTGAGCTACGGTTTCCGCTTCTTTGAAACCGTGGCACCACACAAAGCGGGTGAAACTTTCGTGAATGAAACCATCTGGATGGGCGATAAAGACACGATTGCACTCGGTGTTGATAAAGATACTTACGTAACTTTGCCACGCGGACAGGCCAAAGATCTCACCGCCAGCTTTGTACTTGAAAAACAATTGAAAGCACCGCTGAAGAAAGGCGATATCGTCGGCACACTTTACTATCAATTAGCTGGTAACGATATTGCTCAATACCCATTGCTCGCACTGGAAGATGTGCAAGAAGGCAGCCTATTTAGCCGCCTATGGGATTACTTGGTTCTGCTGTTCAAAAGCTGGTTTTAA | not soluble |
| MSNYEKVYIGTYTNGESRGIYSFNIISDSRKTTAPILSCEIENPTYLTFNMNNKTAYSVIKSGNLGGAASFYVDDRNNHLELLNCKFGYENPPERFSGKQPCYVSLDKTNSYLFSVNYHTSRVDVFPIRNDGSIDTVSSFVIHEGFGPNKERQETSHVHCAVTTPLNDFLCVVDLGTDKIVLYRFDDGILCRFNEFKLKPGCGPRHIIFHPNGKIAYIATELSSEVIVLKYSPLDGSFEELQYVSCLPTDYTGKNGSAAIHISRNSNYLYVSNRGHNSISCFHVDNSTGLLTLNSNTSTYGLSPRDFDLSSSGNLLIAANQDSSNLTIFSVDQVSGNLSKITSDIYVPNPVCVKFYHDKLEHHHHHH | not soluble |
